Reference: the supplement of paper PMC10567573
± gives the standard deviation.

Experiment: protein stability index of a GFP-peptide fusion (GPS, HEK-293T) (PSI 1-6); higher = more stable
[1] = treatment: DMSO, c terminus: a fixed tail appended
[2] = treatment: MLN4924 1 uM, 8 h, c terminus: a fixed tail appended
[3] = treatment: DMSO, c terminus: native
[4] = treatment: MLN4924 1 uM, 8 h, c terminus: native
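Note: 24-mer peptide tiles fused after GFP, lentivirally expressed, FACS-sorted into six equal bins by GFP/DsRed ratio, decoded by Illumina sequencing, PSI is the read-weighted mean bin number.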

Sequence	protein stability index [1]	protein stability index [2]	protein stability index [3]	protein stability index [4]
ESGASIEDHNENGHTPLMEAGSAG [ANKRD17]	5.47 ± 0.25	5.35 ± 0.28	–	–
ESLEDVAMYISQEEWGHQDPSKRA [ZNF263]	4.99 ± 0.069	5.03 ± 0.26	–	–
ESLKVIGRGAFGEVRLVQKKDTGH [STK38L]	4.69 ± 0.17	4.63 ± 0.19	–	–
ESSTRLLLEKNASVNEVDFEGRTP [RIPK4]	4.83 ± 0.79	–	–	–
ESVTHHDYRMELAQAGTPAPTKPH [SPAG8]	4.95 ± 0.26	4.99 ± 0.12	–	–
ETRAEDPPWFEGLESRFQSKSGYL [DFFB]	3.56 ± 0.063	3.63 ± 0.069	–	–
EVDPTGHSFVLVTSLGLTYDGMLS [MAGEA10]	2.51 ± 0.47	2.52 ± 0.51	–	–
EYMKNLLKVGGILVMPLEEKLTKI [PCMTD2]	2.73 ± 0.36	2.13 ± 0.33	–	–
EYVAIKLEPMKSRAPQLHLEYRFY [CSNK1G3]	3.3 ± 0.41	2.93 ± 0.64	–	–
FAWPFYQPVDAIKLNLPDYHKIIK [BRD3]	2.24 ± 0.67	2.19 ± 0.25	–	–
FDDGDDIMATLGFGDSPKAEKRQI [FBF1]	3.97 ± 0.24	4.32 ± 0.19	–	–
FDDYSATLPLTLIVILENIAVAWI [SLC6A17]	2.69 ± 0.44	3.28 ± 0.71	–	–
FEEFLVMMVRQMKEDAKGKSEEEL [TNNC2]	3.48 ± 0.37	3.28 ± 0.35	–	–
FFPWREAKPGSTEKGLPLRKTHVL [MFSD9]	2.72 ± 0.28	2.82 ± 0.076	–	–
FGNRIKVLRSRIRFIHLVTGCVLG [POMT2]	2.57 ± 0.38	2.23 ± 0.45	–	–
FGPDSKSSALACTLPTLPAKVYVG [NCF4]	2.74 ± 0.12	3.03 ± 0.43	–	–
FGSSVPEKQSRCVNIEWHRFRFGQ [WSB1]	2.07 ± 0.34	2.12 ± 0.24	–	–
FIEALIQQYQEQLDKSTKLVETAI [TRIM63]	2.66 ± 0.52	2.14 ± 0.39	–	–
FISRTSIPNAASEEGDEDDWASNK [WEE1]	4.3 ± 0.32	4.73 ± 0.31	–	–
FKHILRTEGAFGLYRGLAPNFMKV [SLC25A25]	2.18 ± 0.31	2.29 ± 0.32	–	–
FLFAKLFSHITSARKARKYEIPHF [PHTF1]	3 ± 0.43	2.79 ± 0.62	–	–
FLPFLLCAVLLSAVQAQAGWLQHD [FADS1]	2.73 ± 0.23	3.02 ± 0.66	–	–
FLTILPEELQSWVRGHHPKSGEEA [ZNF232]	3.7 ± 0.18	3.56 ± 0.35	–	–

Sequence	protein stability index [1]	protein stability index [2]	protein stability index [3]	protein stability index [4]
FPKDTLMNLHVYISEHEHFTDFNA [CLPTM1]	2.37 ± 0.24	1.99 ± 0.42	–	–
FPSAGQAQAAVQGPVGTDFKPLNS [ZNF207]	3.67 ± 0.45	4.16 ± 0.4	–	–
FRLKTINLQSLINNEIPDCYTFSV [MCOLN1]	2.76 ± 0.41	2.51 ± 0.39	–	–
FRLLNLKNDSLRKRYDGLKYDVKK [TSN]	2.85 ± 0.21	2.94 ± 0.32	–	–
FRRFAVHGDARATGREMHGKNWSK [TPPP]	3.62 ± 0.12	3.65 ± 0.33	–	–
FSAYIDSMAAVPTLELCHDELFAD [CEBPD]	3.29 ± 0.37	3.1 ± 0.3	–	–
FSGCLNCSKVSELTERLKVLEAKM [EMID1]	2.83 ± 0.29	2.926 ± 0.029	–	–
FSGDGEYIVAGSARQHALYIWEKS [RBBP5]	2.59 ± 0.32	2.57 ± 0.32	–	–
FSGRMEVLTDSEGWILIDRCGKHF [KCTD10]	2.57 ± 0.28	2.77 ± 0.4	–	–
FTKANFWYQPSFHGVDLSALRGAA [CARM1]	2.38 ± 0.83	1.92 ± 0.3	–	–
FVAENSSLHPESGQENDATSPHFS [CD69]	3.74 ± 0.56	4.23 ± 0.42	–	–
FVEKNPTIVNFPITNVDLREYLSE [USP39]	2.73 ± 0.66	3.01 ± 1	–	–
FVHGLEDEMYEVRIAAVEALCMLA [INTS4]	2.34 ± 0.61	2.23 ± 0.46	–	–
FVQDVLFVLQAIGIPGWGFSGWIS [SCAMP3]	3.33 ± 0.35	2.73 ± 0.33	–	–
GAAGRSHHLDEDEERERIERVRRI [KCTD10]	5.31 ± 0.23	5.07 ± 0.46	–	–
GAFLRTCLLSSNSRSLLTGGYNLA [TLE6]	2.72 ± 0.32	2.79 ± 1.1	–	–
GAPSVGQPGAGFGMPPAGTGMPMM [SNAP91]	3.61 ± 0.23	3.76 ± 0.23	–	–
GARLGGFNFVSTPKCSCGQLAAVH [RNF180]	2.36 ± 0.55	2.54 ± 0.21	–	–
GDIASGYHYGVASCEACKAFFKRT [ESRRG]	2.76 ± 0.38	3.02 ± 0.41	–	–
GDLSPGHGASAPSVSREARQTVPP [PWWP2B]	5.03 ± 0.17	5.25 ± 0.077	–	–
GDVHTVRKMLEQGYSPNGRDANGW [ASB7]	3.51 ± 0.23	3.71 ± 0.24	–	–
GEAAGSSLIGHLQTLSPDMQGAYC [DUSP5]	3.82 ± 0.34	3.87 ± 0.26	–	–
GEFPSPVSISIISSTSGGSGYGFR [KRT71]	2.65 ± 0.34	3.04 ± 0.64	–	–

Sequence	protein stability index [1]	protein stability index [2]	protein stability index [3]	protein stability index [4]
GEGLRIYWGSPEEQSLLSRWNPWS [TPRG1]	2.28 ± 0.2	1.9 ± 0.35	–	–
GEKEEEDKDDEEKPKIEDVGSDEE [HSP90AB1]	5.6 ± 0.24	5.77 ± 0.12	–	–
GEPLEKVASVGNSRPTGQQLESLG [KISS1]	5.04 ± 0.25	5.1 ± 0.13	–	–
GFENMDFFTLDLEHIADALRAIDF [TRIM63]	2.11 ± 0.17	2.25 ± 0.35	–	–
GGGFGGGSCQLGGGRGVSTCSTRF [KRT13]	3.5 ± 0.17	3.59 ± 0.21	–	–
GGLIYWIGLTKAGMEGDWSWVDDT [CD207]	2.12 ± 0.7	3.07 ± 1.4	–	–
GGQITDEMAEQLMTLAYDNGINLF [KCNAB2]	2.79 ± 0.17	2.9 ± 0.35	–	–
GGRPGGRGAPAVQQNIPSTLLQDH [WAS]	4.81 ± 0.13	4.77 ± 0.23	–	–
GGSHPSRPNSRHTPSFSGDSSSSC [VDR]	4.75 ± 0.28	4.73 ± 0.19	–	–
GGYAIAVVLLQGAELLLAARLLGA [TSPAN10]	2.81 ± 0.53	2.96 ± 0.32	–	–
GHDKCVSWMCTRSGNMLGRHFFTS [WDFY1]	2.35 ± 0.36	2.35 ± 0.18	–	–
GHIILNSMHKYQPRLHIVKADENN [TBX5]	2.82 ± 0.48	2.95 ± 0.018	–	–
GHMLQHHGNSGHPLVLSYIDLSAW [HDAC6]	2.24 ± 0.33	1.85 ± 0.19	–	–
GIGDMAFEGDMGAAGGDGELGSPL [PSD2]	5.37 ± 0.25	5.46 ± 0.16	–	–
GISVPSGLFVPSLLCGAAFGRLVA [CLCN6]	2.62 ± 1.2	2.51 ± 0.97	–	–
GKKQVPCFASMLTKKLHFFPKSN [CASP6]	–	–	2.82 ± 0.27	3.51 ± 0.69
GKKVAVVLMDTQGAFDSQSTVKDC [ATL3]	3.46 ± 0.87	3.66 ± 0.44	–	–
GKLKAPPKPCAGNQGTQITVEDLF [MLH1]	–	3.65 ± 0.42	–	–
GLASWPLARGIHVAGILSLLLGTA [POMT2]	2.52 ± 0.52	2.18 ± 0.49	–	–
GNEKITMQNLNDRLASYLDKVRAL [KRT15]	2.6 ± 0.73	2.78 ± 0.5	–	–
GNLSVLDVGCISVTVPSMLSRLLS [OR3A1]	2.09 ± 0.49	2.29 ± 0.18	–	–
GPLFNFDVHDDVRLLSDATVEKDE [FAM50A]	5.23 ± 0.17	5.43 ± 0.11	–	–
GQCVQAFETHESDINSVRYYPSGD [GNB5]	4.52 ± 0.12	4.46 ± 0.093	–	–

Sequence	protein stability index [1]	protein stability index [2]	protein stability index [3]	protein stability index [4]
GQKLVVPGLLGSMALSNHYRSEDL [FBXO3]	2.92 ± 0.21	3.17 ± 0.35	–	–
GQRFYSRVLSPLHRGPSGHTEASA	3.74 ± 0.045	3.79 ± 0.29	–	–
GQTYVDAGYEVDKIAQNLDFVNLM [CHIT1]	3.01 ± 0.27	3.23 ± 0.45	–	–
GRSREELDELTGEVAGGGTPLLIA [FEM1A]	4.6 ± 0.26	4.77 ± 0.26	–	–
GSAAGHVLVKDNGLGCKDLDLIFH [TENT5C]	2.59 ± 0.32	2.84 ± 0.44	–	–
GSEKVTMQNLNDRLASYLDKVRAL [KRT16]	2.88 ± 0.2	2.89 ± 0.25	–	–
GSESYKSSAGSAEQTAPGDSTGYM [EHMT1]	5.16 ± 0.25	5.21 ± 0.3	–	–
GTAITSQYLAERYKVNTPMLQSFI [SLC35F2]	2.58 ± 0.57	2.26 ± 0.38	–	–
GTGLVLDEQLNEFHCLWDDSFPEG [HDAC6]	4.12 ± 0.34	3.96 ± 0.16	–	–
GTWVTFGGQITDEMAEQLMTLAYD [KCNAB2]	2.17 ± 0.37	2.28 ± 0.29	–	–
GYIDPEELAEIFRASGEHVTDEEI [TNNC2]	5.01 ± 0.87	4.99 ± 0.17	–	–
GYLIKILTNSNLPEEELDFFEILR [CNOT7]	2.15 ± 0.25	2.23 ± 0.3	–	–
GYNPDYDESGGPDNEDYPLFRELW [KLHDC10]	3.37 ± 0.36	3.47 ± 0.18	–	–
HAIYSLSYPMRRSYRYKLLNWAYQ [STEAP1]	2.33 ± 0.71	2.63 ± 0.61	–	–
HFSLRVQSRANGVKYPELVLEHSL [PCDHGA10]	2.35 ± 0.29	2.27 ± 0.35	–	–
HFTAMVWKNTKKMGVGKASASDGS [GLIPR2]	3.2 ± 0.14	3.36 ± 0.36	–	–
HGCEYSCVNMDRSFACQCPEGHVL [MATN2]	3.57 ± 0.29	3.61 ± 0.26	–	–
HLKSSRNSTSVKKKSSRNIFSIVF [P2RY14]	2.39 ± 0.48	2.13 ± 0.55	–	–
HMFVWGGYKSNQVRGLYDFYLPRE [KLHDC2]	2.24 ± 0.26	2.19 ± 0.5	–	–
HPSENIIAVAATNNLYIFQDKVN [PPP2R2B]	–	–	2.44 ± 0.22	2.64 ± 0.21
